Paper doi:10.1101/2023.08.23.554525 (bioRxiv, 2023)

B1: 1-1-1F05 Fab (Fab, V domains shown)
VH: QVQLQESGPGLVKPSATLSLTCTLSGGSLSTHYWSWIRQPPGKGLEYIGNIHYSGSTNYNPSLRSRVTISVGTSKNQFSLKLTSVTAADTAVYYCARDAPYSDFLSGVETGWFDPWGQGTLVIVSS
VL: EIVMTQSPATLSVSPGERATLSCRASQSVSSNLAWYQQKPGQAPRLLIYGASTRATGIPARFSGSGSGTDFTLTISSLQSEDFAVYSCQQYNNWPWTFGQGTKVEIK
notes: source: Expi293, transfected, IgG purified (Protein A); Fab by papain digestion, SEC
B2: 1-1-1E04 Fab (Fab, V domains shown)
VH: QVQLVQSGAQLRKPGSSVTVSCKASGDTFNSYSIHWVRQAPGQGLEWMGRIIPVFGMTHYAQRFRGRITVSADKSTRTAYMELTSLTSADTAMYYCARDGGDKFHSSGHFETNQGYFDHWGQGALVTVSS
VL: QSVLTQPPSVSGAPGQRVTVSCTGSSSNLGATYEVHWYQQFPGTAPKLLIYGSTNRPSGVPERFSGSKSGTSASLTITGLQAEDEADYYCQSYDTSLRGFYVFGTGTKVTVL
notes: Parent IgG1
B3: 2-2-1G06 Fab (Fab, V domains shown)
VH: QVQLRESGPGLVKPSQTLSLTCTVSGDSISNGGLYWNWIRQRPGRGLEWIGYIYYNGVTTYNPSLRSRIAISLETAKNQLSLRLSSVSAADTAIYYCAREGWVPDYGGRNYYLDFWGQGTLVTVSS
VL: DIQMTQSPSSLSASVGDRVTITCRASHNIQNFLNWYQQKPGKAPKLLIYAASTLQSGVPSRFSGSGSRTDFTLTISSLQPEDFAAYYCQQSYGLPRTFGQGTRLEIK
B4: 2-2-1G06 monoclonal antibody (IgG1) (antibody, V domains shown)
VH: B3 VH
VL: B3 VL
notes: IgG1; copies: 2 + 2

Assays:
Settings in all cases: both partners purified
[1] = biological target: H1 hemagglutinin (A/New Caledonia/20/1999(H1N1)), recombinant HA trimer used for electron microscopy (influenza A virus A/New …, UniProt Q6WG00); assay: cryo-EM structure
[2] = biological target: biotinylated H1 A/Michigan/45/2015 (MI15) HA ectodomain (Influenza A virus A/Michigan/45/2015 …, UniProt A0A1J0CXU0, strain, biotin (site not stated)); assay: BLI; Octet Red384; […]; Fab at 1600, 400, 100 and 25 nM; PBS + 1% BSA; 180 s association, 300 s dissociation
[3] = biological target: T1, biotinylated H1 A/NewCaledonia/20/1999 (NC99) HA ectodomain (Influenza A virus A/New …, UniProt Q6WG00, strain, biotin (site not stated)); assay: as above
[4] = biological target: T1, biotinylated H1 A/NewCaledonia/20/1999 …; assay: […] (MSD) binding assay; […]

Binder	binding result [1]	binding result [2]	binding result [3]	binding result [4]
B1	binds	–	–	–
B2	binds	–	–	–
B3	binds	binds	binds	–
B4	–	–	–	binds
